# Measured values published in the DeepSol protein solubility set.
# Assay: soluble on expression in E. coli; label from the status in PepcDB or PDB records
row,Sequence,soluble on expression in E. coli
1,SLEIERINEHTVKFYMSYGDIEDRGFDREEIWYNRERSEELFWEVMDEVHEEEEFAVEGPLWIQVQALDKGLEIIVTKAQLSKDGQKLELPIPEDKKQEPASEDLDALLDDFQKEEQAVNQEEKEQKLQFVLRFGDFEDVISLSKLNVNGSKTTLYSFENRYYLYVDFCNMTDEEVENQLSILLEYATESSISIHRLEEYGKLIISEHALETIKKHFAS,soluble
2,RQDARERERLAVLAASRTALAPLDGPPQVLWTSDREEVLWASARTPDGLLVVPGTQGERVVRALDPATGDVVWERELLPPRDTAPAPNEDVAGASCVGHGAAGDLLACLASDAMTVFDERTTDIRYVAPTVVRLVLLDPQDGTVVADLSDAVAGTGTAPAYVALGDLVVVSSVVDDATRVVAVAPDGSVAWRTEVPPSTRPAPGLPGLRRADVLALGDHLVVATAEEMRLLDATGATVRTVPLADDESLGGAEGTTAFARTGLDRVTLMQVGSEVVARGEGTKVVRADHVGELPGGRVRADVDDGSDPRLVLTSDAEGLHGWDAEGVRRWSADVQVTRSAMVLAGRVHATTRADALVTFDARTGAELWRRDGLVLDQAPLADGRVLLVRERGADGAALDLVALDVADGEVAWRTPWPEGVDQLQAVFGVIVGLSYDVEGEDWSVTALG,not soluble
3,MVDSYDDSLDGEKSKTQVKRELHALVDLGERLTTLKADVLAKLPLTDALRKALAEAPKHTANIARKRHILFIGKLMRDQDQEAILVLLDQLDASTRQYNERFHNLERWRDRLIAGDDADLEKFVIEYPDADRQQLRSLIRQAQHEVARNKPPATSRKIFKYIRELDELQ,soluble
4,MPGFDYKFLEKPKRRLLCPLCGKPMREPVQVSTCGHRFCDTCLQEFLSEGVFKCPEDQLPLDYAKIYPDPELEVQVLGLPIRCIHSEEGCRWSGPLRHLQGHLNTCSFNVIPCPNRCPMKLSRRDLPAHLQHDCPKRRLKCEFCGCDFSGEAYESHEGMCPQESVYCENKCGARMMRRLLAQHATSECPKRTQPCTYCTKEFVFDTIQSHQYQCPRLPVACPNQCGVGTVAREDLPGHLKDSCNTALVLCPFKDSGCKHRCPKLAMARHVEESVKPHLAMMCALVSRQRQELQELRRELEELSVGSDGVLIWKIGSYGRRLQEAKAKPNLECFSPAFYTHKYGYKLQVSAFLNGNGSGEGTHLSLYIRVLPGAFDNLLEWPFARRVTFSLLDQSDPGLAKPQHVTETFHPDPNWKNFQKPGTWRGSLDESSLGFGYPKFISHQDIRKRNYVRDDAVFIRAAVELPRKILS,soluble
5,MNWEQKSSMLKKKIERIKEIETTLWGNLEKCELCPRKCGVDRYRTTGICGLPARAKISNAVLHFGEEPPISGKTGAGTVFFSGCNMKCVYCQNMGFSQKGIGTEVEVEDLAEIFLILQKHGAKTLNLVTPTPHLPFIISALRIAIENGLNLPIVYNTSGYEDPEILRLLEGVVDIYLSDVRYSDNEASKKYSKTPDYWTVVQKAIVEMFRQVGIFDEEKMKGLIVRILVLPGNVVDYSEIFSFLSSLSTRIPLSIMNQYIPHFDAQKFPEISRKLNQNEYEKILELAERYGFTEGWYQSEEKERVTTRGLKEISEKLQFLRLKTHNSY,not soluble
6,MVQEIIVDSGDIEFLTTPKEYKQQLLSLIECARQRIFITALYLQDDEAGREILHALYQAKANFPTIEINIFVDFNRGQRGLIGEKASLGNRALYLKLAHEYPHTVNIYGVAVKRKEVFGVLHLKGMVFDEKLFYTGASINDIYLHQGERYRLDRYCTINSAALADSFCHYLSDTFIDSGLAPLLNQEWLPDAVEQKKNLIALKLQLKKSHYIVAQQQGLSQSKIVSNKALITPLVGFGRRKNQLNRATRHLVQKADDNMVLFTPYFNLPHSLAKDVIRALKRGVKTTVVVGDKTANDFFIGNDEDFSTIGIIPYVYEMLLKRFVKRYQNFIDQGLLNIHLWKDKDNSFHLKGLRVDDRYHLITGSNLNPRAWALDLENGLVVDDVNKQLLQKTDEELLGILVNTSKVSHFSDIDSVEDYPEKPQKLLKKIRVAQIDRVLKRFLLEHHHHHH,soluble
7,LKIKMPDDIFVKKELILKDVIKGQIGYMYLPSMSSKNGSINNDLKIIGDYINTLEKHKALIIDIRGNLGGSDRYWQGIVSKLIKNDVKINGYRIYRNNNEIVKKYTNARNIKLNPVENLPASVKENAPKEIIKDFNDFEDTSYTIKSTDDSKFKGNIYLLVDRKIYSSSESFAMFCKENKFATLVGETTGGDGGCIDPVLFNLKNSGLIVRMASCMYLNKNGICDEEFKTIPEFKVKDCKRTADFKDDNCIRKALELENINY,not soluble
8,MAHHHHHHMVNRSTRLQRGPLKKKTTAVAARTSSHAEQPCADGPAKTSSPQTNSIKNVEMTVGVHASPAVAVGDTPQGKLRLRRRAKKDRPLVAAKTDMKSTVRNRKRGRARGSQPGRGSTATTIVHDEQRVTRRPAGGNRQRNQHRQLAEKLVAREEHQSRKKAAEKRMETAKAELALFDQVMQIPSFEENPFAAIEGHLNGTMAFLQPQTPDVGRRKLEE,not soluble
9,MMEPTIHLRQAKAGDIPAILEIEQECFQEDSFSREQFVYLICRSKGTFYVVVEQERIIAYVSLLFHAGTRYLRIYSIAVHPDCRGRKLGQLLMERTIETALDCRAVKITLEVKESNTPAIKLYMKNGFIPVGVKPNYYHDGSDAIYMQRHM,not soluble
10,MPNYKLLYFDARALAEPIRIMFAMLNVPYEDYRVSVEEWSKLKPTTPFGQLPILQVDGEQFGQSMSITRYLARKFGLAGKTAEEEAYADSIVDQYRDFIFFFRQFTSSVFYGSDADHINKVRFEVVEPARDDFLAIINKFLAKSKSGFLVGDSLTWADIVIADNLTSLLKNGFLDFNKEKKLEEFYNKIHSIPEIKNYVATRKDSIV,not soluble
11,MYVECLSSTTPPIDVFDYLSFFVFNKKDNKYLSIQDVEVKRFSSSKTVWGLPKAMSLETFTDPAKGFIVEGEPCEFGAHVKIASSPVPVDENLPFHKFSWSIRDFSVLKQNDCISKTFAMGGKNWTLTVYPKGDSEADNEFCKYLHLADGEVLSPGEMISVRAQLRALDPRGSKHKTVWLQQWIMAATKARGIPQSLSLADLQEAYLDEDTLNVEIECEVVNSRKMF,soluble
12,MMKRQLHRMRQLAQTGSLGRTPETAEFLGEDLLQVEQRLEPAKRAAHNIHKRLQACLQGQSGADMDKRVKKLPLMALSTTMAESFKELDPDSSMGKALEMSCAIQNQLARILAEFEMTLERDVLQPLSRLSEEELPAILKHKKSLQKLVSDWNTLKSRLSQATKNSGSSQGLGGSPGSHSHTTMANKVETLKEEEEELKRKVEQCRDEYLADLYHFVTKEDSYANYFIRLLEIQADYHRRSLSSLDTALAELRENHGQADHSPSMTATHFPRVYGVSLATHLQELGREIALPIEACVMMLLSEGMKKEGLFRLAAGASVLKRLKQTMASDPHSLEEFCSDPHAVAGALKSYLRELPEPLMTFDLYDDWMRAASLKEPGARLQALQEVCSRLPPENLSNLRYLMKFLARLAEEQEVNKMTPSNIAIVLGPNLLWPPEKEGDQAQLDAASVSSIQVVGVVEALIQSADTLFPGDINFNVSGLFSAVTLQDTVSDRLASEELPSTAVPTPATTPAPAPAPAPAPAPALASAATKERTESEVPPRPASPKVTRSPPETAAPVEDMARRSPRGATGR,soluble
13,MGSDKIHHHHHHMSQHVLLNSVDHKDIKIITERSAKYGDNVWFSVTFPAEFRSVQAHYPIFFQKDQTTGQFFAVALYGFQNNENLFLNNGTWQASYIPLTQRRQPFLIGQQSVREDGVERKQRVIHIDIASPRVSTTEGEALFHPYGGNTQYLDDIGDMLEGIHHGLIDSKHFIDLLIEHQLLESFTLDVKLDNGQQHQMMGFYTINEDTLASLSAEVLAQLHIKDYLKAIYMALASQARVRDLLNLKNAQG,not soluble
14,KQKGNYGEYLADDNLINNPKLKEAGYDLERIGGKVPTSPDDKITKGIDGIYINKNPNSNIKYVIDEAKFGKAGLSAKTRDGKQMSDSWLMGSRSRDNRILKALNNNEELADDILEALANNQVERILSKVDINGEVTTYRLDSEGNIIGLWP,soluble
15,MGSDKIHHHHHHMTDRSSFIDTARQVVLDEARALDALSESLGDGFAEAVELILRTKGRVIVSGIGKSGHIGHKIAATLASTGTPAYFVHPAEASHGDLGMLSGDDVVLAISNSGEAPELANLLAFTRRFAIPLIGLSSKSESSLMQQADVHLLIPALGEACGFGMVPSISTTLTLAMGDALAIALMKYRDFRPENFRVFHPGGKLGARLSRVSDLMHGGEAVPLIAADTPMSEALLEISRKGFGVVGVTDGAGHLAGIVTDGDLRRHMSGLLDKTAAQVMTANPTTIAPDSLAEEAVAIMNARKITSLFVVDPAEPGVARGLLHIHDCLRVGLG,not soluble
